Experimental data: a protein production outcome set (Wang et al. 2014)

Assay: label from the status in PepcDB records
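Also: failed if final PepcDB status was selected cloned or expressed and not failed if soluble or beyond.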

Sequence | protein production
MPVTEISEKLSVSPQPSIEDIQSLRDQGFKTLINNRPDNEDASQPNTRAERQQAKQCDLSYAFIPVTADTITEADVRAFQRAVDESDGPVLAHCQTGKRALNLYLIGEVLDGSMSVDKVVEFGRSRGFDTSAAAAWLKQHAARRPQVKGFFDKRTWSVQYVISDPLTRKCAIVDPVLDFDEKSGATATINADAILDYIRDNGLTVEWILDTHPHADHFSAAHYLQEKTGARTAIGERVVDVQKLWKGIYNWPELATDGSQWDRLFAHGETFEVGSIDAKVLFSPGHTLASITYVIGDAAFVHDTLFMPDSGTARADFPGGDARVLWKSIQEILALPAETRIFTGHDYQPEGRAPRWESTVAEQKKSNPHLAGVNEQEFVALRTTRDKTLPMPKLILHALQVNIRGGRLPEPEANGKRYLKFPLDALQGAAWE | failed
MPYDWKRTETRQELRLWPHNSLPPRGAAGFVLLVFALGLLPLIAVLGSPLLWGLLPFLLLAVAGLWLAIEANYRQRRILEVLTLDPERAHLVRHNPRGAVQEWDCNRYWARATLHAHGGPVPHYVTLQGCGREVEIGAFLSEDERIALYDDLREMLSK | failed
MPYITIEGGALTREQKSELIRKVTEVASEVMQIPMEFFLCTVKELPDENIGIGGRTIDLIKLEHHHHHH | not failed
MQAETNSAPLAAALYMIAAMSIIGVIDNYVIRLAESIGLWQFHFMRSLMMLPLVGLMSLMGLGGLFPRRKGWVLLRSLLLTVAMLFYFSALAFMPIAQALAGLFTSPIFVLLVTAFGLRQRIGPWRILAVLMGFAGILFVLQPDPGAFDATVLIPVAGGFFYALGAVVTRRHCAGESTAALLGAMVTALGLTGLGGLIWLALFPATPLPGPDGFVARGWVWPMAEAMPWVALQAVGSATAVFMLIRAYQLGEPSYVSVFEFSVMIFGPLFAWVVLGVGLGPWQMLGIGLIVLAGAIIALRSG | failed
MQAIRSILVVIEPDQLEGLALKRAQLIAGVTQSHLHLLVCEKRRDHSAALNDLAQELREEGYSVSTNQAWKDSLHQTIIAEQQAEGCGLIIKQHFPDNPLKKAILTPDDWKLLRFAPCPVLMTKTARPWTGGKILAAVDVGNNDGEHRSLHAGIISHAYDIAGLAKATLHVISAHPSPMLSSADPTFQLSETIEARYREACRTFQAEYGFSDEQLHIEEGPADVLIPRTAQKLDAVVTVIGTVARTGLSGALIGNTAEVVLDTLESDVLVLKPDDIIAHLEELASKE | not failed
MQANRSQLHSPPGTGSSEDASTPQCVHTRLTGEGSCPHSGDVHIQINSIPKECAENASSRNIRSGVHSCAHGCVHSRLRGHSHSEARLTDDTAAESGDHGSSSFSEFRYLFKWLQKSLPYILILSVKLVMQHITGISLGIGLLTTFMYANKSIVNQVFLRLNFFKSYFGPFELLGSILDCWNYRLHSEILFHGLKMPYFIGAFFHHAF | failed
MQARDIMTTTVVSISPDVSVRHAVAMMLQNHVSGLPVVDDHGRVCGMVTEGDLLLRREVRYAPRPARAPELISEIDLERYIGSNGWCVADVMSQDVIVARPDSEVSDIAESLQVHRIKRLPIVEDERLVGIVSRRDILRVIAEAPTTILPRGDEAIRLAVRTRLRSDLGLTPQKVHVSVRNGQVTVDGQVESELKRRAIKVLVEGLGGIAGYKDGLLVSPAHIQD | failed
MQAYVLHFIALVIMSLTGTTSGAFAQNGQSTEVSGPIEDRVPHRHQERPGERMPADYGTPRLLNLGAHTFPVSTSNQLAQQYMNQGLNLSYAFNHAEAGRAFREAARLDPALAMAYWGQALVLGPNINAPMEAKNEVSALELVRKAASLAAGVSDRERALIGALEKRYTGNSEDRKANDKAYANAMREVHRRFSGDQDIAMLFVESVMDTSPWGYWMRDDYPMEGTREIVAVTEGVLQGNPRHPGATHMYIHLMEPTNMPERAAQAADTLLTLMPDAGHLIHMPSHIYLRVGRYEDAIIANQRAIAADVRYLVRQHEHGFYAMAYFPHNIHFLGAAATADGQSELAIDSARKVASTIDDAVLKEMPMTGVFRVVPYWALTRFGKWDEMLQEPEPPSSNAFLKGGWHYARGLAFVAKRQLSEAEQELAALREIMKDDSLDGPLLSVNTARSVLRIGPAVLAGEIAAARGQFNSAIAHLEQAVRLEDSLAYTEPPEWQAPPRLTLGAILLEAGHPAEAETVYWEDLRRNRNNGWALYGLLQALRAQGKNERAALVEERFNKAWARADVKLGASRFGCVFSPMTMAGQSR | failed
MQCRDHSTHLVSLPNSQGPAVPFTMRRPVRPPSVPMSRYRTAPLATTELPPGIPFIIGNELAERFSYYGMRAILVVFMTRYLVDAAGNPAPMQEGEAKGYFHLFVSLTYFTPFLGALLADGVLGKYRTIIALSLVYCLGHFALALDDTRTGLLLGQSLIALGAGGIKPCVSAHVGDQFGQSNRHLLSQIYGWFYLAINLGAFVSMLLIPWLLERHGASVAFAVPGLLMLIATLVFWAGRHRFVHIPPGGMRFIREAWSSEGRRGVGRLIGVFLFITMFWALFDQTGSSWVLQSQRMDRVLFGHAILPSQIQAANPLLIVLLTPFFHHLLYPALARLIPMTALNKIALGLSFTVLAFALAAWIQMRIDTGLKPSIGWQLLAYLLLTSAEVMVSITSLEFAYTQAPLTMKSFVMALYLGAVALGNLFTALVNFWIERSKTPWLDGAGYFWFFTGLMLATALGFFAYSRNYREELHLQTER | failed
MQDFWHAASAQLESELTPQQFKTWIKPLTPLSFDEQACMLRIAAPNRFKLDWVKSQFSGRIQSLACDYWEMQVDVQFVLDPTAGQRQAAMQPALAPMPMQPLAAQTMQAQAVPREAPARPTMAPYRETPMATAAHAAADIDVPVMDAAEASTQSYRVPAPAAPAVMGGLSAPPAAPVDDTVHERSRLNPILTFDNLVTGKANQLARAAAVQVANNPGKSYNPLYLYGGVGLGKTHLIHAIGNFMLMENPRARIRYIHAEQYVSDVVKAYQRKAFDDFKRYYHSLDLLLIDDIQFFSGKNRTQEEFFYAFEALIANRAQVIITSDTYPKEITGIDDRLISRFDSGLTVAIEPPELEMRVAILMKKAQAENVTVPEEVAFFVAKHLRSNVRELEGALRKILAYSNFHGKEITIEVTREALKDLLTVQNRQISVENIQKTCADFYNIKVADMYSKKRPANIARPRQIAMYLAKELTQKSLPEIGELFGGRDHTTVLHAVRKIADERSKDAQLNHELHVLEQTLKG | failed
MQDLNDIALFAAVVKHNGFSAAARDLNVPKSKLSKHVARLEEQLGVRLLERSTRKLRMTEVGRIFYEHAQGLLDGVAAAEAEIAAVRAEPTGVVRLACPIGFTPMLADILPAFHRRYPGVRLLITASNRRIDLIEERIDVALRARDQLDTDSQLIVRKFGEVRQRLAASPTLLARLGEITTDNLSQMPTLSMNEQHPNDVWRLVHATGGAIEIAHRPVVGCSDFLILERAAIEGMGIALLPDHICERAFRTGALVPVLPEWTSGNVMVHLVFPSRHGLLPATRALIDFLAENLIKALERCREVDPRPAASFEI | failed
MQDNSVNETKNIVEVGIDSSIEESYLAYSMSVIIGRALPDARDGLKPVHRRILYAMHELGLTSKVAYKKSARIVGDVIGKYHPHGDNAVYDALVRMAQDFSMRLELVDGQGNFGSIDGDNAAAMRYTEARMTKASEEILRDIDKDTIDFVPNYDDTLKEPDILPSRLPNLLVNGANGIAVGMATSIPPHRMDEIIDALVHVLENPNAGLDEILEFVKGPDFPTGGIIYGKAGIIEAYKTGRGRVKVRAKVHVEKTKNKEIIVLDEMPFQTNKAKLVEQISDLAREKQIEGISEVRDESDREGIRVVIELKRDAMSEIVLNHLYKLTTMETTFSIILLAIYNKEPKIFTLLELLHLFLNHRKTIIIRRTIFELEKAKARAHILEGYLIALDNIDEIVRLIKTSQSPEAAKNALMERFTLSEIQSKAILEMRLQRLTGLERDKIKEEYQNLLELIDDLNGILKSEDRLNGVVKTELLEVKEQFSSPRRTEIQESYENIDIEDLIANEPMVVSMSYKGYVKRVDLKAYEKQNRGGKGKLSGSTYEDDFIENFFVANTHDILLFITNKGQLYHLKVYKIPEASRIAMGKAIVNLISLAPDEKIMATLSTKDFSDERSLAFFTKNGVVKRTNLSEFESNRSCGIRAIVLDEGDELVSAKVVDKNAKHLLIASHLGIFIKFPLEEVREIGRTTRGVIGIKLNENDFVVGAVVISDDGNKLLSVSENGLGKQTLAEAYRGQSRGGKGVIGMKLTQKTGNLVGVISVDDENLDLMILTASAKMIRVSIKDIRETGRNASGVKLINTADKVMYVNSCPKEEEPENLETSSAQNLFE | failed
MQDRMLRRVFILAGIALLLWVLYLLKPVVIPFVGAFLIAYLFSPLVEKLSKIGLPRWLSISIVFIGIGVLLTWAMWYVVPLVWQQLMYARDSIPSGIHWVNATFLPWVSHTFNVERMEIDTDQISTVVMEYIQTNYSADSIQTMALRLAQSGLNFIQIGGTIVLIPIISFYFLLDWDRMLNSLRRLIPRPYEESTLRIVYECHSVLGAFVKGQFLVMLLLGIVYAVGLQLIGLEVGLIIGMVAGLASIIPYLGFAVGIIAAVIATVFQFGVDWMQLALVGVVFMIGQAVEGYILQPFLLGDKIGLSPVAVVFAVLAGAQLAGFLGMLIALPVAAVIVVLLRHLREAYEHTQMYAGTATVVSTGNGEHISIETENLDLDIEVKNPQDTDTSIDNDRK | failed
MQEIQRFNKVLKSCVLFGDIILLNSLLWGFELVLGSRFYSGNLTSLYQGMVLLSLCYLVCNIQSGVILHHPVVRPEQIMIRVLRNMVPFILFSICFLSLFHFEFFRSRLFGLFYVALLIILICYRLAFRYFLELYREKGGNVRMVVLVGSHENMQELYHSMTDDPTSGYRVMGYFEDSPSDYYPEEVAYLGQPKEAIEYLERNSGKIAQLYCSLPSVRSAEIVPIINYCENHLVRFFSVPNVRNYLKRRMYFDLLGNVPVLSIRREPLELRENRVLKRFFDIIFSLIFLCTIFPFVYIIIGIAIKISSPGPIFFKQKRSGEDGREFWCYKFRSMRVNAQCDVLQATANDPRKTRIGEFIRKTSIDELPQFINVLMGDMSVVGPRPHMLKHTEEYAQVINKFMVRHFVKPGITGWAQVTGYRGETKELWQMEGRVSRDIWYIEHWTFMLDLYIIYKTVYNAIHGEKEAY | failed
MQEISAYTLIKEKLQAIPNLRHKGILFEKISKQFLQEHDSANEYESIDLWYDWKLRGNERDKGIDIVITTFKQRIHRCAMQIPSK | failed
MQFGVTKESQCHYLTDQEERLVVALPNDLENLNADAYQQLMQYGFRRSHNDVYRPHCRLCSACQSLRVVVPEFRFSKNQKRILKKNDDLTLQIKQQPEAEYSQLFSQFIEQRHADGEMYPPDPDKFWKWIDCDWLTPELLEWRNASNELMIVSVVDRTVDAMSAVYTFFHPDEEKRSPGTFAVLEMIRLAQEREVARLYLGYQIDDCKKMNYKTRFAPYERLVGNHWKKELKSHTLKAQNKD | failed
MQFPSIEDLRARNTMKWTRYGQGVLPLWVAESDFSTCPAVLQAITDAVQREAFGYQPDGSLLSQATAEFYADRYGYQARPEWIFPIPDVVRGLYIAIDHFTPAQSKVIVPTPAYPPFFHLLSATQREGIFIDATGGINLHDVEKGFQAGARSILLCNPYNPLGMVFAPEWLNELCDLAHRYDARVLVDEIHAPLVFDGQHTVAAGVSDTAASVCITITAPSKAWNIAGLKCAQIIFSNPSDAEHWQQLSPVIKDGASTLGLIAAEAAYRYGTDFLNQEVAYLKNNHDFLLHEIPKRIPGAKITPMQATYLMWIDFRDTTIEGSPSEFFIEKAKVAMNDGAWFGEDGTGFCRLNFATSREVLEEAIDRMAKAVSHHT | not failed
MQFYNRQKELKLMELLDQGKPSFFVITGKRRVGKTELIKQFTRNRKALYLFVDSNKSINILMDEFDRLLKEKLDLPDYIKVDEPENFLKFITSYDRDLVIAIDEFQRFQKVYPSFITQLQRYWDMKPDNCRIFLIVSGSSIGMIRKIFIEEQAPLFKRADNILTIKPFTVLETFEMLDGMGIKNPEEKLNLYFLFGGTVYYYRLFEKYQCTGFDDALEKLIFSEFAPLKNEVREILIEEFGKEHSTYYEIISAISQGRCSMSEISDMTHVSSSSLSPYFYDLIDLLGVVEHRIPVMDNPEKSKRGRYFLKDNFFRFYGRFIYPMYSRYMAGNYSPMLEKVRKEWQSYTGKIFEDIVHELLVEKMISDYPELGSWWNRKGDEIDILGVDHRGRKSLVIEVKNKELAENEAREILELTLDKTKLVKGISGQKLKVGIVAQKVKGRKNLEDDGFLVWELEELIPLEHHHHHH | failed
